Measurements as given in article PMC4468133.

Molecular target: HIV-1 integrase (HIV-1)

Substance: lens-epithelium derived growth factor (LEDGF/p75) (from UniProt O75475 1-530) (natural protein)
- LEDGF/p75-dependent activation of in vitro integration into PN (polynucleosome) templates, IN-LEDGF/p75 preformed complex against IN alone (radiolabelled donor, average of four templates): 5 fold
